Experimental data from patent US20040265963A1 (UNIVERSITY OF FLORIDA RESEARCH FOUNDATION, published 2004).
Ends that are not written are not given here. * marks the point of attachment. Biotin = O=C1N[C@H]2[C@H](CS[C@H]2CCCCC(=O)*)N1

How the values were obtained:
Assay in all cases: ELISA, biotinylated JAK2 WT on plate-coated control peptide (FIG. 1A)
MuIFN-γ(95-125) peptide = biological target: T1, MuIFN-γ(95-125) peptide (murine)
T1 construct: Control peptide; numbering is on the mature form of murine IFN-γ
T1 peptide: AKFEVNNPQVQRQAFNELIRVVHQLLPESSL

[1] = biological target: T2, VEGFR peptide (vascular endothelial growth factor receptor autophosphorylation peptide VEGFR 1208-1222)
T2 construct: Control peptide
T2 peptide: SSDVRYVNAFKFM

[2] = biological target: T3, CDK-2 cyclin box peptide (cyclin-dependent kinase, cyclin box peptide 41-61)
T3 construct: Control peptide; also called CDK 41-61
T3 peptide: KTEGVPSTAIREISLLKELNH

Measured: binding result

B1: biotinylated JAK2 WT peptide (JAK2 autophosphorylation peptide, residues 1001-1013, LPQDKEYYKVKEP) (peptide)
peptide: Biotin-LPQDKEYYKVKEP
notes: Synthetic peptide, biotin incorporated at the N-terminus during synthesis; not phosphorylated at Y1007; also called wild type JAK2 peptide; unphosphorylated JAK2 WT
no binding: all assays above
